Measurements from publication PMC2823781, “The X-Ray Crystal Structure of Escherichia coli Succinic Semialdehyde Dehydrogenase; Structural Insights into NADP^+/Enzyme Interactions” (PLoS ONE, 2010).

Key:
[1] = target: Escherichia coli succinic semialdehyde dehydrogenase (gabD gene product, NADP+-dependent) (E. coli) (UniProt P25526); test: SEC; analytical size-exclusion chromatography of purified recombinant SSADH; data not shown
[2] = target: T1, E. coli SSADH (gabD gene product) (Escherichia coli, UniProt P25526); test: fluorometric NADPH formation (ex […] nm, em […] nm); format: biochemical; conditions: 1.1 mM NADP+, 100 mM Na phosphate pH 8.0, 30 °C; varied substrate SSA (range printed as 0–400 mM), substrate not named beside Km
T1 construct: expressed in E. coli BL21(DE3) pLysS; homotetramer, 481 residues per monomer in crystal; single amino acid change versus database gabD, not specified

| Molecule | stoichiometry N [1] | Km [2] |
| --- | --- | --- |
| Escherichia coli succinic semialdehyde dehydrogenase (gabD gene product, NADP+-dependent) (from UniProt P25526 1-482) (enzyme) | 4 | – |
| O=CCCC(=O)O [SSA, succinic semialdehyde] | – | 16.9 ± 2.2 µM |
